Laboratory results from PMC3627587.
Read-outs that look alike come from different tables or passages of the source.

T1: sIHF (Streptomyces coelicolor, UniProt Q9KXR9 1-107)
T1 sequence: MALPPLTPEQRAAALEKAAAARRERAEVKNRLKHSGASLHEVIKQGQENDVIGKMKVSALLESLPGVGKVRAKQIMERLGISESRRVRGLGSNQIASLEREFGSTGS


Columns and labels:
[1] = target: T1, sIHF; test: EMSA
[2] = target: T1, sIHF; test: EMSA; remark: listed apart in the source

Row | Binder | binding result [1] | binding result [2]
1 | 19-bp duplex (20bp OH1/OH2) (dsDNA) DNA 1: GAGGGAGTGCGTGGGTCTGA DNA 2: CTCAGACCCACGCACTCCCT | binds | 
2 | 43-bp dsDNA (dsDNA) DNA 1: ACCAGGTGGTTGCCGATCACCACGAAGCGGGTGGTGTGGCGGG DNA 2: CCCGCCACACCACCCGCTTCGTGGTGATCGGCAACCACCTGGT |  | binds
3 | 60-bp dsDNA (dsDNA) DNA 1: CGTACGCGTCGCCACGGCGGCGGCATCGTCCACGAGAACACCCGCCACACCACCCGCTTC DNA 2: GAAGCGGGTGGTGTGGCGGGTGTTCTCGTGGACGATGCCGCCGCCGTGGCGACGCGTACG |  | binds
